From patent US20180134786A1 (TOHOKU UNIVERSITY, published 2018)

T1: human podocalyxin expressed on cancer cells (human, UniProt O00592 23-558)
T1 construct: Podocalyxin on cancer cells; also called hPODXL; PODXL
T1 sequence: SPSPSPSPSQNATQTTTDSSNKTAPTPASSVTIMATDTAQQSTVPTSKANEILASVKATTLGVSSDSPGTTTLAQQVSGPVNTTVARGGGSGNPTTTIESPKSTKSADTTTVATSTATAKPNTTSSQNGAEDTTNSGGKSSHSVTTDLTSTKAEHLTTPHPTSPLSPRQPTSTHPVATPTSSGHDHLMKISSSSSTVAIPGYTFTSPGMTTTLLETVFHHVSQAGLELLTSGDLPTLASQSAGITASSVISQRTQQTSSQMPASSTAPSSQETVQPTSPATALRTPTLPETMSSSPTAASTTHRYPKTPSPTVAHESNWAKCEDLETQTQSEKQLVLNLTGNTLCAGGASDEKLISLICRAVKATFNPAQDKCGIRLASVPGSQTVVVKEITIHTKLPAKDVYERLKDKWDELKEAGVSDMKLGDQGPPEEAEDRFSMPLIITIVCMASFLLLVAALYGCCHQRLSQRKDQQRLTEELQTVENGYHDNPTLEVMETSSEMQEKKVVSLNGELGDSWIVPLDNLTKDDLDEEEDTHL


Tests used:
[1] = target: T1, human podocalyxin expressed on cancer …; assay: immunohistochemistry on breast cancer tissue array, 5 µg/mL
Description: Various paraffin sections were deparaffined in xylene and ethanol solutions. The resulting sections were subjected to antigen activation in an autoclave by using a citrate buffer having pH 6.0 (product of Dako). Endogenous peroxidase was inactivated with 3% H₂O₂. After blocking with SuperBlock (product of Thermo Fisher) at room temperature for 10 minutes, the primary antibody was reacted at a concentration of from 5 to 10 μg/mL at room temperature for one hour. After amplification using a LSAB kit (product of Dako), LSAB2 (product of Dako), or Envision+ (product of Dako), color was developed using DAB (product of Dako).
Podocalyxin is known to be expressed highly in breast cancer. PcMab-6 and an anti-podocalyxin antibody (polyclonal antibody: product of R&D) were therefore reacted with a breast cancer tissue array (product of US Biomax) at a concentration of 5 μg/mL. […] Similarly, a difference in reactivity with breast cancer between PcMab-6 and PcMab-47 was investigated. […] It has therefore been confirmed that also in Immunohistochemistry, PcMab-6 is CasMab.

[2] = target: T1, human podocalyxin expressed on cancer …; assay: flow cytometry on LN229/hPODXL, CHO culture supernatant
Description: A CRISPR/Cas plasmid of a glycosyltransferase (FUT-8) that transfers a core fucose was introduced into CHO-s cells (product of Thermo Scientific) and CHO-s-fut8-knock out cells were established. pCAG-hIgG1hG2b/PcMab-6HVH (G418)/pCAG-hIgCK/PcMab-6LVL (zeocin) (each 2.5 μg) or pCAG-hIgG1hG2b/PcMab-47HVH (G418)/pCAG-hIgCK/PcMab-47LVL (zeocin) (each 2.5 μg) were mixed and transfected into 1×10⁵ CHO-s/fut8-knock out cells (corresponding to 1 well of a 6-well plate) by the method of Lipofectamin LTX. After 24 hours, selection of transfected cells was started on a medium containing 500 μg/mL of Zeocin and 1 mg/mL of G418. The reactivity of the culture supernatant of the selected cells with the LN229 cells having therein forcibly expressed podocalyxin (LN229/hPODXL) was confirmed by flow cytometry.

binding result [1] | binding result [2] | Binder
binds |  | PcMab-47 (antibody, mouse IgG1, kappa, Mouse monoclonal antibody; also called cancer-nonspecific anti-podocalyxin antibody) heavy: QVQLQQSAAELARPGASVKMSCKASGYTFTNYTIHWVKQRPGQGLEWIGFINPTSGYSDFNQKFKAKTTLTADKSSSTAHMQLTSLTSEDSAVYYCARLFAPAYWGQGTLVTVSAAKTTPPSVYPLAPGSAAQTNSMVTLGCLVKGYFPEPVTVTWNSGSLSSGVHTFPAVLQSDLYTLSSSVTVPSSTWPSETVTCNVAHPASSTKVDKKIVPRDCGCKPCICTVPEVSSVFIFPPKPKDVLTITLTPKVTCVVVDISKDDPEVQFSWFVDDVEVHTAQTQPREEQFNSTFRSVSELPIMHQDWLNGKEFKCRVNSAAFPAPIEKTISKTKGRPKAPQVYTIPPPKEQMAKDKVSLTCMITDFFPEDITVEWQWNGQPAENYKNTQPIMDTDGSYFVYSKLNVQKSNWEAGNTFTCSVLHEGLHNHHTEKSLSHSPGK light: QIVLTQSPAIMSASLGERVTMYCTASSSVSSSYLHWYQQKPGSSPKLWIYGTSNLASGVPARFSGSGSGTSYSLTISSMEAEDAATYYCHQYHRPPLTFGAGTKLELKRADAAPTVSIFPPSSEQLTSGGASVVCFLNNFYPKDINVKWKIDGSERQNGVLNSWTDQDSKDSTYSMSSTLTLTKDEYERHNSYTCEATHKTSTSPIVKSFNRNEC
 | binds | mouse-human chimeric PcMab-47 antibody (chPcMab-47) (antibody, VH/VL of PcMab-47 with human IgG1 CH1-hinge-CH2-CH3 and human kappa CL, expressed in CHO cells; The entries may include the signal peptide; also called chPcMa47) heavy: not shown light: QIVLTQSPAIMSASLGERVTMYCTASSSVSSSYLHWYQQKPGSSPKLWIYGTSNLASGVPARFSGSGSGTSYSLTISSMEAEDAATYYCHQYHRPPLTFGAGTKLELKRTSTVAAPSVFIFPPSDEQLKSGTASVVCLLNNFYPREAKVQWKVDNALQSGNSQESVTEQDSKDSTYSLSSTLTLSKADYEKHKVYACEVTHQGLSSPVTKSFNRGEC
